Test results reported in US20220204580A1 (AstraZeneca / MedImmune, published 2022).
Numbered stars: 1 amine (or outer) side, 2 acyl side, 3 side chain; on linkers, the order of the positions; unused ones are H or OH. Bridge positions count the residues as written; N and C are the ends. Square brackets hold non-standard residues; d marks the D form. Side chains are listed from the residue outwards. Ends that are not written are not given here. * marks the point of attachment. C20 diacid = O=C(O)CCCCCCCCCCCCCCCCCCC(=O)*; C18 diacid = O=C(O)CCCCCCCCCCCCCCCCC(=O)*; γGlu = O=C(O)[C@H](CCC(=O)[*:2])N[*:1]; αMeF = C[C@](N)(Cc1ccccc1)C(=O)O; Aib = CC(C)(N)C(=O)O

T1: human amylin receptor (calcitonin receptor co-expressed with receptor activity modifying protein, RAMP3) (human, UniProt P30988 25-474; O60896 24-148)
T1 sequence (looked up) 1: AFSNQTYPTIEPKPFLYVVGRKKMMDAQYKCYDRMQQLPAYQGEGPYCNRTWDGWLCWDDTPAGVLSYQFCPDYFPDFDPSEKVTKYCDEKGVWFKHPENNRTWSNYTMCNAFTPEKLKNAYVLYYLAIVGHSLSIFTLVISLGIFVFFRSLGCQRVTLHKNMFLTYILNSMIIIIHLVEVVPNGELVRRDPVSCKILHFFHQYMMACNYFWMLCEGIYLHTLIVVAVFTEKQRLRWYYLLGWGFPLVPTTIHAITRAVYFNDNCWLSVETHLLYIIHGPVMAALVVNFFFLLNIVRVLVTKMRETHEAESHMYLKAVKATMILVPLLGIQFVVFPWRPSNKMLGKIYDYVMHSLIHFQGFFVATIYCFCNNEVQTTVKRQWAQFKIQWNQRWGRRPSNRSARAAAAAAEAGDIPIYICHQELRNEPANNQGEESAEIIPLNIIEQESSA
T1 sequence (looked up) 2: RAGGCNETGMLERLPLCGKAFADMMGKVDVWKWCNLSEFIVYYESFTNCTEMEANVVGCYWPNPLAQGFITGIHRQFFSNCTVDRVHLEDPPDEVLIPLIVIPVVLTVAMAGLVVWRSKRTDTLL

T2: human calcitonin receptor (human, UniProt P30988 25-474)
T2 sequence (looked up): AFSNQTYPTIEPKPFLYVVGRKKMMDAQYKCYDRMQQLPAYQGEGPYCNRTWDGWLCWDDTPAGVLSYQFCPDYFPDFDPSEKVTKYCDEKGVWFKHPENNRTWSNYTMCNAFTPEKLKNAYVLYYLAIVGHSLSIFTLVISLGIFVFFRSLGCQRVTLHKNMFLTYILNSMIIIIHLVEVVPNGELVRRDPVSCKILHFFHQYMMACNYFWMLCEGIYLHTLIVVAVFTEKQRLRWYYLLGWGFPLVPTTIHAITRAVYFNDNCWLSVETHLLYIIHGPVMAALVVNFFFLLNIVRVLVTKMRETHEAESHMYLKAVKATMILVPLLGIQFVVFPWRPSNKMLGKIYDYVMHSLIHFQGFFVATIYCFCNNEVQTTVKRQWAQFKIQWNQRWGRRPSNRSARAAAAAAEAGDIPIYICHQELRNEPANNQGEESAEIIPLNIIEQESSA


Experiments:
[1] = target: T1, human amylin receptor (calcitonin …); experiment: cell-based or functional assay
[2] = target: T2, human calcitonin receptor; experiment: cell-based or functional assay

Binder | EC50 (cAMP production) [1] | Ratio (EC50 hCTR / EC50 hAMYR3) [1] | EC50 (cAMP production) [2]
K([γGlu-γGlu-C18 diacid])CNTATCATQRLANFLVHSSNN[αMeF]GPILPPTNVGSNTY-NH2 (disulfide 2-7) [Peptide 13 (SEQ ID NO: 13)] | 0.196 nM | 10 | 2.04 nM
K([γGlu-C18 diacid])KCNTATCATQRLANFLVHSSNNF[Aib]PILPPTNVGSNTY-NH2 (disulfide 3-8; N-terminus assumed; SMILES CC[C@H](C)[C@H](NC(=O)[C@@H]1CCCN1C(=O)C(C)(C)NC(=O)[C@H](Cc1ccccc1)NC(=O)[C@H](CC(N)=O)NC(=O)[C@H](CC(N)=O)NC(=O)[C@H](CO)NC(=O)[C@H](CO)NC(=O)[C@H](Cc1c[nH]cn1)NC(=O)[C@@H](NC(=O)[C@H](CC(C)C)NC(=O)[C@H](Cc1ccccc1)NC(=O)[C@H](CC(N)=O)NC(=O)[C@H](C)NC(=O)[C@H](CC(C)C)NC(=O)[C@H](CCCNC(=N)N)NC(=O)[C@H](CCC(N)=O)NC(=O)[C@@H](NC(=O)[C@H](C)NC(=O)[C@@H]1CSSC[C@H](NC(=O)[C@H](CCCCN)NC(=O)[C@@H](N)CCCCNC(=O)CC[C@H](NC(=O)CCCCCCCCCCCCCCCCC(=O)O)C(=O)O)C(=O)N[C@@H](CC(N)=O)C(=O)N[C@@H]([C@@H](C)O)C(=O)N[C@@H](C)C(=O)N[C@@H]([C@@H](C)O)C(=O)N1)[C@@H](C)O)C(C)C)C(=O)N[C@@H](CC(C)C)C(=O)N1CCC[C@H]1C(=O)N1CCC[C@H]1C(=O)N[C@H](C(=O)N[C@@H](CC(N)=O)C(=O)N[C@H](C(=O)NCC(=O)N[C@@H](CO)C(=O)N[C@@H](CC(N)=O)C(=O)N[C@H](C(=O)N[C@@H](Cc1ccc(O)cc1)C(N)=O)[C@@H](C)O)C(C)C)[C@@H](C)O) [Peptide 110 (SEQ ID NO: 110)] | 0.204 nM | 3 | 0.541 nM
K([γGlu-C18 diacid])KCNTATCATQRLANFLVHSSNHFGPILPPTNVGSETY-NH2 (disulfide 3-8; N-terminus assumed; SMILES CC[C@H](C)[C@H](NC(=O)[C@@H]1CCCN1C(=O)CNC(=O)[C@H](Cc1ccccc1)NC(=O)[C@H](Cc1c[nH]cn1)NC(=O)[C@H](CC(N)=O)NC(=O)[C@H](CO)NC(=O)[C@H](CO)NC(=O)[C@H](Cc1c[nH]cn1)NC(=O)[C@@H](NC(=O)[C@H](CC(C)C)NC(=O)[C@H](Cc1ccccc1)NC(=O)[C@H](CC(N)=O)NC(=O)[C@H](C)NC(=O)[C@H](CC(C)C)NC(=O)[C@H](CCCNC(=N)N)NC(=O)[C@H](CCC(N)=O)NC(=O)[C@@H](NC(=O)[C@H](C)NC(=O)[C@@H]1CSSC[C@H](NC(=O)[C@H](CCCCN)NC(=O)[C@@H](N)CCCCNC(=O)CC[C@H](NC(=O)CCCCCCCCCCCCCCCCC(=O)O)C(=O)O)C(=O)N[C@@H](CC(N)=O)C(=O)N[C@@H]([C@@H](C)O)C(=O)N[C@@H](C)C(=O)N[C@@H]([C@@H](C)O)C(=O)N1)[C@@H](C)O)C(C)C)C(=O)N[C@@H](CC(C)C)C(=O)N1CCC[C@H]1C(=O)N1CCC[C@H]1C(=O)N[C@H](C(=O)N[C@@H](CC(N)=O)C(=O)N[C@H](C(=O)NCC(=O)N[C@@H](CO)C(=O)N[C@@H](CCC(=O)O)C(=O)N[C@H](C(=O)N[C@@H](Cc1ccc(O)cc1)C(N)=O)[C@@H](C)O)C(C)C)[C@@H](C)O) [Peptide 111 (SEQ ID NO: 111)] | 0.403 nM | 5 | 1.88 nM

The remaining lines, values ahead:

EC50 (cAMP production) [1] | Ratio (EC50 hCTR / EC50 hAMYR3) [1] | EC50 (cAMP production) [2] | Binder
1.46 nM | 24 | 34.7 nM | K([γGlu-γGlu-C20 diacid])CNTATCATQRLANFLVHSPPNFPAILSPTNVGSNTY-NH2 (disulfide 2-7; N-terminus assumed; SMILES CC[C@H](C)[C@H](NC(=O)[C@H](C)NC(=O)[C@@H]1CCCN1C(=O)[C@H](Cc1ccccc1)NC(=O)[C@H](CC(N)=O)NC(=O)[C@@H]1CCCN1C(=O)[C@@H]1CCCN1C(=O)[C@H](CO)NC(=O)[C@H](Cc1c[nH]cn1)NC(=O)[C@@H](NC(=O)[C@H](CC(C)C)NC(=O)[C@H](Cc1ccccc1)NC(=O)[C@H](CC(N)=O)NC(=O)[C@H](C)NC(=O)[C@H](CC(C)C)NC(=O)[C@H](CCCNC(=N)N)NC(=O)[C@H](CCC(N)=O)NC(=O)[C@@H](NC(=O)[C@H](C)NC(=O)[C@@H]1CSSC[C@H](NC(=O)[C@@H](N)CCCCNC(=O)CC[C@H](NC(=O)CC[C@H](NC(=O)CCCCCCCCCCCCCCCCCCC(=O)O)C(=O)O)C(=O)O)C(=O)N[C@@H](CC(N)=O)C(=O)N[C@@H]([C@@H](C)O)C(=O)N[C@@H](C)C(=O)N[C@@H]([C@@H](C)O)C(=O)N1)[C@@H](C)O)C(C)C)C(=O)N[C@@H](CC(C)C)C(=O)N[C@@H](CO)C(=O)N1CCC[C@H]1C(=O)N[C@H](C(=O)N[C@@H](CC(N)=O)C(=O)N[C@H](C(=O)NCC(=O)N[C@@H](CO)C(=O)N[C@@H](CC(N)=O)C(=O)N[C@H](C(=O)N[C@@H](Cc1ccc(O)cc1)C(N)=O)[C@@H](C)O)C(C)C)[C@@H](C)O) [Peptide 119 (SEQ ID NO: 119)]
0.77 nM | 4 | 3.19 nM | K([γGlu-γGlu-C20 diacid])CNTATCATQRLANFLVHSS[Aib]NFPAILSPTNVGSNTY-NH2 (disulfide 2-7; N-terminus assumed; SMILES CC[C@H](C)[C@H](NC(=O)[C@H](C)NC(=O)[C@@H]1CCCN1C(=O)[C@H](Cc1ccccc1)NC(=O)[C@H](CC(N)=O)NC(=O)C(C)(C)NC(=O)[C@H](CO)NC(=O)[C@H](CO)NC(=O)[C@H](Cc1c[nH]cn1)NC(=O)[C@@H](NC(=O)[C@H](CC(C)C)NC(=O)[C@H](Cc1ccccc1)NC(=O)[C@H](CC(N)=O)NC(=O)[C@H](C)NC(=O)[C@H](CC(C)C)NC(=O)[C@H](CCCNC(=N)N)NC(=O)[C@H](CCC(N)=O)NC(=O)[C@@H](NC(=O)[C@H](C)NC(=O)[C@@H]1CSSC[C@H](NC(=O)[C@@H](N)CCCCNC(=O)CC[C@H](NC(=O)CC[C@H](NC(=O)CCCCCCCCCCCCCCCCCCC(=O)O)C(=O)O)C(=O)O)C(=O)N[C@@H](CC(N)=O)C(=O)N[C@@H]([C@@H](C)O)C(=O)N[C@@H](C)C(=O)N[C@@H]([C@@H](C)O)C(=O)N1)[C@@H](C)O)C(C)C)C(=O)N[C@@H](CC(C)C)C(=O)N[C@@H](CO)C(=O)N1CCC[C@H]1C(=O)N[C@H](C(=O)N[C@@H](CC(N)=O)C(=O)N[C@H](C(=O)NCC(=O)N[C@@H](CO)C(=O)N[C@@H](CC(N)=O)C(=O)N[C@H](C(=O)N[C@@H](Cc1ccc(O)cc1)C(N)=O)[C@@H](C)O)C(C)C)[C@@H](C)O) [Peptide 117 (SEQ ID NO: 117)]
0.417 nM | 2 | 0.792 nM | K([γGlu-γGlu-C20 diacid])CNIATCATQRLANFLVHSIANFGPILPPTNVGSRTY-NH2 (disulfide 2-7; N-terminus assumed; SMILES CC[C@H](C)[C@H](NC(=O)[C@H](CO)NC(=O)[C@H](Cc1c[nH]cn1)NC(=O)[C@@H](NC(=O)[C@H](CC(C)C)NC(=O)[C@H](Cc1ccccc1)NC(=O)[C@H](CC(N)=O)NC(=O)[C@H](C)NC(=O)[C@H](CC(C)C)NC(=O)[C@H](CCCNC(=N)N)NC(=O)[C@H](CCC(N)=O)NC(=O)[C@@H](NC(=O)[C@H](C)NC(=O)[C@@H]1CSSC[C@H](NC(=O)[C@@H](N)CCCCNC(=O)CC[C@H](NC(=O)CC[C@H](NC(=O)CCCCCCCCCCCCCCCCCCC(=O)O)C(=O)O)C(=O)O)C(=O)N[C@@H](CC(N)=O)C(=O)N[C@@H]([C@@H](C)CC)C(=O)N[C@@H](C)C(=O)N[C@@H]([C@@H](C)O)C(=O)N1)[C@@H](C)O)C(C)C)C(=O)N[C@@H](C)C(=O)N[C@@H](CC(N)=O)C(=O)N[C@@H](Cc1ccccc1)C(=O)NCC(=O)N1CCC[C@H]1C(=O)N[C@H](C(=O)N[C@@H](CC(C)C)C(=O)N1CCC[C@H]1C(=O)N1CCC[C@H]1C(=O)N[C@H](C(=O)N[C@@H](CC(N)=O)C(=O)N[C@H](C(=O)NCC(=O)N[C@@H](CO)C(=O)N[C@@H](CCCNC(=N)N)C(=O)N[C@H](C(=O)N[C@@H](Cc1ccc(O)cc1)C(N)=O)[C@@H](C)O)C(C)C)[C@@H](C)O)[C@@H](C)CC) [Peptide 118 (SEQ ID NO: 118)]
